{"source": "patent US20240409983A1", "about": "(published 2024)", "binders": {"B1": {"name": "Analyte (other)", "chain": "KLTIESTPFNVAEGKEVLLLVHNLPQHLFGYSWYKGERVDGNRQIIGYVIGTQQATPGPAYSGREIIYPNASLLIQNIIQNDTGFYTLHVIKSDLVNEEATGQFRVYPELPKPSISSNNSKPVEDKDAVAFTCEPETQDATYLWWVNNQSLPVSPRLQLSNGNRTLTLFNVTRNDTASYKCETQNPVSARRSDSVILNVLYGPDAPTISPLNTSYRSGENLNLSCHAASNPPAQYSWFVNGTFQQSTQELFIPNITVNNSGSYTCQAHNSDTGLNRTTVTTITVYAEPPKPFITSNNSNPVEDEDAVALTCEPEIQNTTYLWWVNNQSLPVSPRLQLSNDNRTLTLLSVTRNDVGPYECGIQNELSVDHSDPVILNVLYGPDDPTISPSYTYYRPGVNLSLSCHAASNPPAQYSWLIDGNIQQHTQELFISNITEKNSGLYTCQANNSASGHSRTTVKTITVSAELPKPSISSNNSKPVEDKDAVAFTCEPEAQNTTYLWWVNGQSLPVSPRLQLSNGNRTLTLFNVTRNDARAYVCGIQNSVSANRSDPVTLDVLYGPDTPIISPPDSSYLSGANLNLSCHSASNPSPQYSWRINGIPQQHTQVLFIAKITPNNNGTYACFVSNLATGRNNSIVKSITVSASGTSPGLSA"}}, "key": {"6162-B78-8_MAM02-008": {"target": "6162-B78-8_MAM02-008", "test": "NGS-count immunoassay, capture antibody titration; average Kd; antibody pair"}, "6162-H85-2t_6162-F78-2": {"target": "6162-H85-2t_6162-F78-2", "test": "NGS-count immunoassay, capture antibody titration; average Kd; antibody pair"}, "401-01R_6162-C57-1": {"target": "401-01R_6162-C57-1", "test": "NGS-count immunoassay, capture antibody titration, single-site binding fit; average Kd; antibody pair"}}}
{"binder": "B1", "values": [{"measurement": "Kd", "setting": "6162-B78-8_MAM02-008", "result": 1.94, "unit": "nM"}, {"measurement": "Kd", "setting": "6162-H85-2t_6162-F78-2", "result": 0.352, "unit": "nM"}, {"measurement": "Kd", "setting": "401-01R_6162-C57-1", "result": 0.906, "unit": "nM"}]}
